In article doi:10.1101/2020.02.18.953257:

Target: human Replication Factor C (hRFC) with RFC1ΔN555 (human) (UniProt P35251)

apparent Kd from hRFC ATPase activity as a function of PCNA concentration: 120 nM
Substance: S228I-PCNA (from UniProt P12004 1-261) (natural protein)
